Target: plasma purified human complement protein C3 (human) (UniProt P01024)
Test: cell-based or functional assay

plasma purified human complement protein C3 (human), sequence (P01024 23-667, chain 1 of 2): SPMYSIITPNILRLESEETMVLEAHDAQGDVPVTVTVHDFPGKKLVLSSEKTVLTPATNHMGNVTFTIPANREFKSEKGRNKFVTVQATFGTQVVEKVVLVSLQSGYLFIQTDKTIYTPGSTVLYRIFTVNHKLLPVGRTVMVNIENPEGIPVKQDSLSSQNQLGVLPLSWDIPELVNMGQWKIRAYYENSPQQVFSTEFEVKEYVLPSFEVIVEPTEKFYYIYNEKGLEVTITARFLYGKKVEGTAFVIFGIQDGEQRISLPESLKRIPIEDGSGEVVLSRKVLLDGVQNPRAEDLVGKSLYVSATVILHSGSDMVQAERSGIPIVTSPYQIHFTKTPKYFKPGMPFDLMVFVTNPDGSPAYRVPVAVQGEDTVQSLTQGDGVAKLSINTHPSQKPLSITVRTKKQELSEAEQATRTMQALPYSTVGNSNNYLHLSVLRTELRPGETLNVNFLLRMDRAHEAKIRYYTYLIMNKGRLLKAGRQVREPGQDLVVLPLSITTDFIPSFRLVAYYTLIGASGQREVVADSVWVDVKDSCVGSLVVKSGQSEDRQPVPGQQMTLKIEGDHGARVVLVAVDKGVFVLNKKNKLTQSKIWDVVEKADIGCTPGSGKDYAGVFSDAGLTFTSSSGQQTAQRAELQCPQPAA
plasma purified human complement protein C3 (human), sequence (P01024 672-1663, chain 2 of 2): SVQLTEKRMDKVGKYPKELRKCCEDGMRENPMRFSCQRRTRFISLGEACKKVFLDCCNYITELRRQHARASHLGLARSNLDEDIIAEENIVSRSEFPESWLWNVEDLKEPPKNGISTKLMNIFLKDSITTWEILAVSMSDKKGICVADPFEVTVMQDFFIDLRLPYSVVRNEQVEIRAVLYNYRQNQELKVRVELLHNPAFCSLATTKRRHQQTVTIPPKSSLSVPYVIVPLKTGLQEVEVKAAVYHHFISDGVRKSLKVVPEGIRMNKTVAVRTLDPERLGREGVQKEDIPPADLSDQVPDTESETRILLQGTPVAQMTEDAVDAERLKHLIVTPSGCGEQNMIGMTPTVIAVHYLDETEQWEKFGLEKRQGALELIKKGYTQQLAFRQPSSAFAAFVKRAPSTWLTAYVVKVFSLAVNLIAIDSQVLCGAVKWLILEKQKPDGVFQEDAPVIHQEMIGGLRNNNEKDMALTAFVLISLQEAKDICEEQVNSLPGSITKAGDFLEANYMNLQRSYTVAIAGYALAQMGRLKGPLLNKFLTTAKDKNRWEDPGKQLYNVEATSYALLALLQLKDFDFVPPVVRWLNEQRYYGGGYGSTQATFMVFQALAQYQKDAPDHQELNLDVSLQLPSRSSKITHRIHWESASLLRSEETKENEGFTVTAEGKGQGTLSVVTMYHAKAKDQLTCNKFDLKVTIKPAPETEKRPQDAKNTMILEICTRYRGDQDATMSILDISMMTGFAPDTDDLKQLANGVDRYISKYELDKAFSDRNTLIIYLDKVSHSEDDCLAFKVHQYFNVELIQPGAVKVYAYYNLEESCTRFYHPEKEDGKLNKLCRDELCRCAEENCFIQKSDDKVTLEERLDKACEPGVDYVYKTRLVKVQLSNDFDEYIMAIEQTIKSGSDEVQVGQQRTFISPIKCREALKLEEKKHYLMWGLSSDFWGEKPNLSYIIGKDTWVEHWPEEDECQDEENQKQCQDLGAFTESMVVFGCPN

Binder | EC50 of hC3 cleavage
MTSP-1 Q38H/I41A/D60bY/F60eT/ins97aE/F97T/T98G/F99L/C122S/Q175L/Q192D (enzyme) VVGGTDADEGEWPWQVSLHALGHGHACGASLISPNWLVSAAHCYIDYRGTRYSDPTQWTAFLGLHDQSQRSAPGVQERRLKRIISHPFFNDTEGLDYDIALLELEKPAEYSSMVRPISLPDASHVFPAGKAIWVTGWGHTQYGGTGALILQKGEIRVINQTTCENLLPQLITPRMMCVGFLSGGVDSCDGDSGGPLSSVEADGRIFQAGVVSWGDGCAQRNKPGVYTRLPLFRDWIKENTGV | 4.77 nM
MTSP-1 Q38Y/I41S/D60bR/F60eE/Y60gF/ins97aE/F97T/T98G/F99L/C122S/Q175L/Q192V (enzyme) VVGGTDADEGEWPWQVSLHALGYGHSCGASLISPNWLVSAAHCYIDRRGERFSDPTQWTAFLGLHDQSQRSAPGVQERRLKRIISHPFFNDTEGLDYDIALLELEKPAEYSSMVRPISLPDASHVFPAGKAIWVTGWGHTQYGGTGALILQKGEIRVINQTTCENLLPQLITPRMMCVGFLSGGVDSCVGDSGGPLSSVEADGRIFQAGVVSWGDGCAQRNKPGVYTRLPLFRDWIKENTGV | 25 nM
MTSP-1 Q38H/I41S/D60bT/F60eS/Y60gW/ins97aV/F97D/T98P/F99L/C122S/G151H/Q175L/Q192V (enzyme) VVGGTDADEGEWPWQVSLHALGHGHSCGASLISPNWLVSAAHCYIDTRGSRWSDPTQWTAFLGLHDQSQRSAPGVQERRLKRIISHPFFNDDVPLDYDIALLELEKPAEYSSMVRPISLPDASHVFPAGKAIWVTGWGHTQYGGTHALILQKGEIRVINQTTCENLLPQLITPRMMCVGFLSGGVDSCVGDSGGPLSSVEADGRIFQAGVVSWGDGCAQRNKPGVYTRLPLFRDWIKENTGV | 7.43 nM
MTSP-1 Q38H/I41S/D60bT/F60eS/ins97aV/F97D/T98P/F99L/C122S/G151H/Q175L/Q192V (enzyme) VVGGTDADEGEWPWQVSLHALGHGHSCGASLISPNWLVSAAHCYIDTRGSRYSDPTQWTAFLGLHDQSQRSAPGVQERRLKRIISHPFFNDDVPLDYDIALLELEKPAEYSSMVRPISLPDASHVFPAGKAIWVTGWGHTQYGGTHALILQKGEIRVINQTTCENLLPQLITPRMMCVGFLSGGVDSCVGDSGGPLSSVEADGRIFQAGVVSWGDGCAQRNKPGVYTRLPLFRDWIKENTGV | 20.2 nM
MTSP-1 ins97aA/F97G/T98L/C122S/Q175M/Q192A/D217I/K224R (enzyme) VVGGTDADEGEWPWQVSLHALGQGHICGASLISPNWLVSAAHCYIDDRGFRYSDPTQWTAFLGLHDQSQRSAPGVQERRLKRIISHPFFNDGALFDYDIALLELEKPAEYSSMVRPISLPDASHVFPAGKAIWVTGWGHTQYGGTGALILQKGEIRVINQTTCENLLPQMITPRMMCVGFLSGGVDSCAGDSGGPLSSVEADGRIFQAGVVSWGIGCAQRNRPGVYTRLPLFRDWIKENTGV | 0.866 nM
MTSP-1 ins97aY/F97H/F99L/C122S/Q175M/Q192A/D217V (enzyme) VVGGTDADEGEWPWQVSLHALGQGHICGASLISPNWLVSAAHCYIDDRGFRYSDPTQWTAFLGLHDQSQRSAPGVQERRLKRIISHPFFNDHYTLDYDIALLELEKPAEYSSMVRPISLPDASHVFPAGKAIWVTGWGHTQYGGTGALILQKGEIRVINQTTCENLLPQMITPRMMCVGFLSGGVDSCAGDSGGPLSSVEADGRIFQAGVVSWGVGCAQRNKPGVYTRLPLFRDWIKENTGV | 5.72 nM
MTSP-1 ins97aL/F97Q/T98G/F99L/C122S/Q175M/Q192S/D217I (enzyme) VVGGTDADEGEWPWQVSLHALGQGHICGASLISPNWLVSAAHCYIDDRGFRYSDPTQWTAFLGLHDQSQRSAPGVQERRLKRIISHPFFNDQLGLDYDIALLELEKPAEYSSMVRPISLPDASHVFPAGKAIWVTGWGHTQYGGTGALILQKGEIRVINQTTCENLLPQMITPRMMCVGFLSGGVDSCSGDSGGPLSSVEADGRIFQAGVVSWGIGCAQRNKPGVYTRLPLFRDWIKENTGV | 6.67 nM
MTSP-1 ins97aY/F97G/T98V/C122S/Q175M/Q192S/D217V (enzyme) VVGGTDADEGEWPWQVSLHALGQGHICGASLISPNWLVSAAHCYIDDRGFRYSDPTQWTAFLGLHDQSQRSAPGVQERRLKRIISHPFFNDGYVFDYDIALLELEKPAEYSSMVRPISLPDASHVFPAGKAIWVTGWGHTQYGGTGALILQKGEIRVINQTTCENLLPQMITPRMMCVGFLSGGVDSCSGDSGGPLSSVEADGRIFQAGVVSWGVGCAQRNKPGVYTRLPLFRDWIKENTGV | 2.42 nM
